Measurements: publication PMC11548879

Key:
[1] = target: IL-33 (mouse) (mouse (endogenous in BALB/c mice and CMT-64 cells)) (UniProt Q8BVZ5)
[2] = system: HpARI1 (Heligmosomoides polygyrus bakeri); experiment: EMSA; settings: pH 7.5, 30 min, room temperature

Chain of UniProt Q8BVZ5 (Q8BVZ5 whole entry): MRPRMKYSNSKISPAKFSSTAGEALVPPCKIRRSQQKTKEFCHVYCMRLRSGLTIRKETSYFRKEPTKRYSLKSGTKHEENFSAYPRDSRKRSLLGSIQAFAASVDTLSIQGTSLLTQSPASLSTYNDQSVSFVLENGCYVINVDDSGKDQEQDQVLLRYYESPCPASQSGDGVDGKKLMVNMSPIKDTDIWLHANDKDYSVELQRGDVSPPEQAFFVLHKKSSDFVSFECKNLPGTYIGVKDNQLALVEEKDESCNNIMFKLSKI

HpARI2 (natural protein)
IC50 of suppression of IL-5 production from bone marrow cells (IL-2, IL-7, freeze-thawed CMT-64 supernatants; IL-33-mediated ILC2 activation) [1]: 1.9 ng/mL

HpARI3 (natural protein)
EC50 of amplification of IL-5 production from bone marrow cells (IL-2, IL-7, freeze-thawed CMT-64 supernatants; IL-33-mediated ILC2 activation) [1]: 1.2 ng/mL

HpARI3:2 fusion protein (CCP1 domain of HpARI3 fused to the CCP2+3 domains of HpARI2)
IC50 of suppression of IL-5 production from bone marrow cells (IL-2, IL-7, freeze-thawed CMT-64 supernatants; IL-33-mediated ILC2 activation) [1]: 1.1 ng/mL

AACTTTGCCATTGTGGAAGG / CCTTCCACAATGCCAAAGTT [IR700 EMSA oligonucleotide probe]
binding signal [2]: 50 % DNA bound

HpARI2:3 fusion protein (CCP1 domain of HpARI2 fused to the CCP2+3 domains of HpARI3)
EC50 of amplification of IL-5 production from bone marrow cells (IL-2, IL-7, freeze-thawed CMT-64 supernatants; IL-33-mediated ILC2 activation) [1]: 21.5 ng/mL
